The values below come from PMC6796863, “Structural insight into human N6amt1–Trm112 complex functioning as a protein methyltransferase” (Cell Discovery, 2019).

The target of this assay is T1, human N6amt1–Trm112 complex (human, UniProt Q9Y5N5 1-214; Q9UI30 1-125).
T1 construct: human N6amt1 (HemK2), full length, 214 amino acids; human Trm112, full length; SAM co-purifies with the complex; before the ITC titration the complex was incubated with SAH at a molar ratio of 1:2; also called the protein complex; source: E. coli BL21(DE3), co-expressed from pET-Duet, purified (Ni-NTA, gel filtration)
T1 sequence (looked up) 1: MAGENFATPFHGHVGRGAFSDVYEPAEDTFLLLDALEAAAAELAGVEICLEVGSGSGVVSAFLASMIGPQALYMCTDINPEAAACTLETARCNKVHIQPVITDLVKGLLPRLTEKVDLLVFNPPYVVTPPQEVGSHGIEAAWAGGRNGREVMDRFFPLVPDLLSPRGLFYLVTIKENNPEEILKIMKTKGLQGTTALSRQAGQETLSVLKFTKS
T1 sequence (looked up) 2: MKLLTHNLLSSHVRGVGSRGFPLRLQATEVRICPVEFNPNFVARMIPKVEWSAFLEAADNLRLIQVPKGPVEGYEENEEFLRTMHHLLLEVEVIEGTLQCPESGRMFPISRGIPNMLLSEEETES
Description: ITC; 2 mM peptide injected into 0.1 mM N6amt1–Trm112 in the cell, 20 °C; complex incubated beforehand with SAH at a molar ratio of 1:2; single binding site model. The settings on record: both partners purified. For orientation: Isothermal titration calorimetry measures the heat released or taken up as one component is titrated into another.

B1: Gln185-centered 15-residue peptide of human eRF1 (GGQ peptide) (peptide)
peptide: KKHGRGGQSALRFAR
notes: human eRF1, 15-residue peptide centered at Gln185; also called 15-residue GGQ peptide of eRF1
As usually defined, the Kd is the concentration at which binding is half-saturated. As to B1, the Kd was 490 ± 150 µM.
